The text below walks through data of patent publication US20170355757A1 (Regeneron, published 2017).

Experiment [1] deals with T1, hC5a (human, UniProt P01031 678-751).
T1 sequence (looked up): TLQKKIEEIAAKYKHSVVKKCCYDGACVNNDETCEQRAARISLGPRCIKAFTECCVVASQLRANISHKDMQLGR
Briefly: cell-based or functional assay.

Experiment [2] deals with T2, human C5 (human, UniProt P01031 19-1676).
T2 construct: native C5 purified from plasma (EMD) in the Biacore and Octet assays, C5 of normal human serum in the CDC and hemolysis assays; two chains (alpha and beta); also called hC5; complement factor 5
Briefly: SPR (Biacore), mAb captured, dissociation of human C5 at pH7.4 vs pH6.0, 37°C. An outline of the steps:
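Anti-C5 mAbs (human IgG4 Fc) captured on an amine-coupled mouse anti-human Fc surface; recombinant C5 dissociation followed by Biacore T200 in PBS-T (0.01M phosphate, 0.15M NaCl, 0.05% Tween-20) at pH7.4 or pH6.0. Dissociative half-life (t½) calculated from kd.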
A general note: In SPR one partner is held on a chip, and binding of the other changes the refractive index at the surface.

In experiment [3] the target is T2, human C5. Kind of experiment: cell-based or functional assay.
The target of experiment [4] is human C5 R885C-mmh (human, UniProt P01031 19-1676). Kind of experiment: cell-based or functional assay.
For experiment [5], the target named is T2, human C5. Kind of experiment: cell-based or functional assay. This is another data set of the same source.
The target in experiment [6] is human C5 R885H-mmh (human, UniProt P01031 19-1676). Kind of experiment: cell-based or functional assay.
Experiment [7] addresses African green monkey C5 (African green monkey). Kind of experiment: cell-based or functional assay.

Where only a bound is given, the exact number is not on record here.

B1: H2aM11684N (antibody, mouse IgG2, V domains shown)
VH: QVQLQESGPGLVKPSQTLSLTCTVSGGSISSGAYHWSWIRQHPGKGLEWIGYIYYNGDTYYNPSLKSRVTISVDTSKNQFFLKVTSVTAADTAMYYCAGEKQLTAFDIWGQGTLVTVSS
VL: VIQMTQSPSSLSASVGDRVTITCRASQDINNFLNWYQQKLGKAPKLLISDASNLQTGVPSRFSGSGSGTDFTFTISSLQPEDIAAYYCQQYDHFPYTFGQGTRLENN
Turning to B1, in experiment [1], the “IC50, inhibition of 500 pM hC5a in HEK293/Gα16/hC5aR1/NFAT-luc cells” value was determined as 3.5e-11 M.

B2: H2aM11682N (antibody, mouse IgG2, V domains shown)
VH: QEQLVQSGAEVKKPGASVKVSCKASGYTFTGYYIHWVRQAPGLGLEWMGWINPNSGGTKYAQKFQGRVTMTRDTSINTAYMELKRLKSDDSAVYYCARDAPPHDVFDIWGQGTLVTVSS
VL: DIQMTQSPSSLSASVGDRVTITCRASQGIRNDLGWYQQKPGKAPKRLIYAASSLQIGVPSRFSGSGSGTEFTLTISSLQPEDFATYYCLQHNSYPLTFGGGTKVEIK
Take B2: in experiment [1], the “IC50, inhibition of 500 pM hC5a in HEK293/Gα16/hC5aR1/NFAT-luc cells” value stood at 4.6e-10 M.

B3: H2aM11695N (antibody, mouse IgG2, V domains shown)
VH: QVHLVQSGAEVKKPGASVKVSCKVSGNTLTELSMHWVRQAPGKGLEWMGGFDPEDGDTIYSQKFQGRVTLTEDTSTDTAYMELSSLRSEDTAVYYCSTVGGPTSDCWGQGTLVTVSS
VL: DIQMTQSPSSLSASVGDRVTITCQASQDISNYLNWYQQKPGKAPKVLIFDASNLEPGVPSRFSGSGSGTDFTFTIISLQPEDIATYYCQQYDNLPITFGQGTRLDIK
B3: the “IC50, inhibition of 500 pM hC5a in HEK293/Gα16/hC5aR1/NFAT-luc cells” value in experiment [1] was 4.2e-11 M.

B4: H4H12166P8 (antibody, human IgG4, V domains shown)
VH: QVQLQESGPGLVKPSETLSLTCTVSGDSVSSSYWTWIRQPPGKGLEWIGYIYYSGSSNYNPSLKSRATISVDTSKNQFSLKLSSVTAADTAVYYCAREGNVDHTMIFDYWGQGTLVTVSS
VL: AIQMTQSPSSLSASVGDRVTITCRASQGIRNDLGWYQQKPGKAPKLLIYAASSLQSGVPSRFAGRGSGTDFTLTISSLQPEDFATYYCHQDFNYPWTFGQGTKVEIK
notes: histidine-mutated CDR variant of H4H12166P; human IgG4 (S108P)
Consider B4, for which, in experiment [2], the “t½ Ratio pH7.4/pH6.0” value stood at 36. In experiment [3], the “Human AP % Max Inhibition, hemolysis assay, 5% NHS” value was determined as 73.3%; the “Human AP IC50, hemolysis assay, 5% NHS” value is 73 nM; the “Human CP % Max Inhibition, hemolysis assay, 5% NHS” value (“Human CP % Max Inhibition” for short) turned out to be 95.7%; the “Human CP IC50, hemolysis assay, 5% NHS” value amounted to 14.1 nM. For the same molecule, the “IC50, inhibition of CDC of Daudi cells, C5 depleted human serum and 6.6 nM C5 Variant R885C, 30 nM anti-CD20 antibody” value (“IC50, inhibition … 30 nM anti-CD20 antibody” below) in experiment [4] was determined as 1.2 nM. In experiment [5], the “IC50, inhibition of CDC of Daudi cells, 1.66% human serum, 2 nM anti-CD20 antibody” value came out at 4.1 nM. Also, the “IC50, inhibition of CDC of Daudi cells, C5 depleted human serum and 6.6 nM C5 Variant R885H, 7 nM anti-CD20 antibody” value (shortened to “IC50, inhibition … 7 nM anti-CD20 antibody”) in experiment [6] was 2.1 nM. Moreover, in experiment [7], the “IC50, inhibition of CDC of Daudi cells, 1.66% African Green monkey serum, 10 nM anti-CD20 antibody” value is above 20 nM and the “Max % Inhibition of CDC of Daudi cells, 1.66% African Green monkey serum, 10 nM anti-CD20 antibody” value (“Max % Inhibition of CDC of Daudi cells” below) was determined as 79%.

B5: H4H12166P10 (antibody, human IgG4, V domains shown)
VH: QVQLQESGPGLVKPSETLSLTCTVSGDSVSSSYWTWIRQPPGKGLEWIGYIYYSGSSNYNPSLKSRATISVDTSKNQFSLKLSSVTAADTAVYYCAREGNVDTTMIHDYWGQGTLVTVSS
VL: AIQMTQSPSSLSASVGDRVTITCRASQGIRNDLGWYQQKPGKAPKLLIYAASSLQSGVPSRFAGRGSGTDFTLTISSLQPEDFATYYCLQDFNYPWHFGQGTKVEIK
notes: as for B4
B5: the “t½ Ratio pH7.4/pH6.0” value in experiment [2] stood at 19. Besides, in experiment [3], the “Human CP % Max Inhibition” value was determined as 74% and the “Human CP IC50, hemolysis assay, 5% NHS” value was 44.4 nM. In addition, the “IC50, inhibition … 30 nM anti-CD20 antibody” value in experiment [4] is 3.5 nM. For the same molecule, the “IC50, inhibition of CDC of Daudi cells, 1.66% human serum, 2 nM anti-CD20 antibody” value in experiment [5] is 12 nM. For the same molecule, the “IC50, inhibition … 7 nM anti-CD20 antibody” value in experiment [6] worked out at 7 nM. Further, in experiment [7], the “IC50, inhibition of CDC of Daudi cells, 1.66% African Green monkey serum, 10 nM anti-CD20 antibody” value was above 100 nM and the “Max % Inhibition of CDC of Daudi cells” value amounted to 34%.

B6: H4H12166P9 (antibody, human IgG4, V domains shown)
VH: QVQLQESGPGLVKPSETLSLTCTVSGDSVSSSYWTWIRQPPGKGLEWIGYIYYSGSSNYNPSLKSRATISVDTSKNQFSLKLSSVTAADTAVYYCAREGNVDHTMIFDYWGQGTLVTVSS
VL: AIQMTQSPSSLSASVGDRVTITCRASQGIRNDLGWYQQKPGKAPKLLIYAASSLQSGVPSRFAGRGSGTDFTLTISSLQPEDFATYYCLQDFNYPWHFGQGTKVEIK
notes: as for B4
On to B6, for which, in experiment [2], the “t½ Ratio pH7.4/pH6.0” value worked out at 28. Besides, in experiment [3], the “Human AP % Max Inhibition, hemolysis assay, 5% NHS” value was 72.2%; the “Human AP IC50, hemolysis assay, 5% NHS” value came out at 53.5 nM; the “Human CP % Max Inhibition” value came out at 93.7%; the “Human CP IC50, hemolysis assay, 5% NHS” value worked out at 11.6 nM. Further, the “IC50, inhibition … 30 nM anti-CD20 antibody” value in experiment [4] is 0.77 nM. The “IC50, inhibition of CDC of Daudi cells, 1.66% human serum, 2 nM anti-CD20 antibody” value in experiment [5] is 3.9 nM. In addition, in experiment [6], the “IC50, inhibition … 7 nM anti-CD20 antibody” value amounted to 1.7 nM. In experiment [7], the “IC50, inhibition of CDC of Daudi cells, 1.66% African Green monkey serum, 10 nM anti-CD20 antibody” value is above 10 nM and the “Max % Inhibition of CDC of Daudi cells” value was 85%.

B7: H2aM11694N (antibody, mouse IgG2, V domains shown)
VH: EVQLVESGGGVVRPGGSLRLSCAASGFTFDDYGMTWVRQAPGKGLEWVSGINWNGDSTEYSDSVKGRFTISRDNAKNSLYLQMNSLRAEDTAFYHCARENNWNFYFDYWGQGTLVTVSS
VL: EIVMTQSPATLSVSRGERATLSCRASQSVSSNLAWYQQKLGQAPRLLIYGASTRATGIPARFSGSGSGTEFTLTISSLQSEDFAVYYCQQYNNWPWTFGQGTKVEIK
In the case of B7, the “IC50, inhibition of 500 pM hC5a in HEK293/Gα16/hC5aR1/NFAT-luc cells” value in experiment [1] was 1.4e-10 M.
